# Test results published in patent US20060269549A1 (APPLIED MOLECULAR EVOLUTION, published 2006).
# Changes are numbered by the printed parent chain. In names and notes the source's numbering stands.
# B1: 2E7K Fab fragment (Fab, name in Kabat numbering, V domains shown)
# VH: EVQLVESGGGLVQPGGSLRLSCAASGFKFSNHWMNWVRQAPGKGLEWVGEIRSKSMNSATHYARSVKGRFTISRDDSKNSLYLQMNSLKTEDTAVYYCARNYYGSTYDHWGQGTLVTVSS
# VL: EIVLTQSPDFQSVTPKEKVTITCRASQFVGLSIHWYQQKPDQSPKLLIKYASESRSGVPSRFSGSGSGTDFTLTINSLEAEDAATYYCQQSHSWHFTFGQGTKVEIK
# B2: 2C6K Fab fragment (Fab, name in Kabat numbering, V domains shown)
# VH: B1 VH with M56I
# VL: B1 VL with S54Y, R55M
# B3: 2C6P Fab fragment (Fab, name in Kabat numbering, V domains shown)
# VH: B1 VH with K28P, M56I
# VL: B1 VL with S54Y, R55M
# B4: 2E7P Fab fragment (Fab, name in Kabat numbering, V domains shown)
# VH: B1 VH with K28P
# VL: B1 VL
# B5: A9K Fab fragment (Fab, name in Kabat numbering, V domains shown)
# VH: B1 VH
# VL: B1 VL with L31M, R55K
# B6: A9P Fab fragment (Fab, name in Kabat numbering, V domains shown)
# VH: B1 VH with K28P
# VL: B1 VL with L31M, R55K
# B7: A10K Fab fragment (Fab, V domains shown)
# VH: B1 VH with R64E
# VL: B1 VL with L31Y
# notes: Fab released from the E. coli periplasm; Mutations against hu1: light S31Y, M55R; heavy T28K, I53M
# B8: A10P Fab fragment (Fab, name in Kabat numbering, V domains shown)
# VH: B1 VH with K28P, R64E
# VL: B1 VL with L31Y
# B9: hu1 Fab fragment (Fab, V domains shown)
# VH: B1 VH with K28T, M56I, R64E
# VL: B1 VL with L31S, R55M
# notes: Parent Fab with fully human frameworks
# B10: A10K IgG (antibody, V domains shown)
# VH: B1 VH with R64E
# VL: B1 VL with L31Y
# B11: AME 3-2 antibody (antibody, V domains shown)
# VH: B1 VH with K28T, S30R, M56I, H61F, R64E, T106Y
# VL: DIQMTQSPSSLSASVGDRVTITCVTTQFVGYAIHWYQQKPGKAPKLLIYYASSSRSGVPSRFSGSGSGTDFTLTISSLQPEDFATYYCQQSHGWPFTFGQGTKVEIK
# Key:
# human TNF-α [1] = biological target: T1, human TNF-α (human, UniProt P01375 77-233); test: ELISA, Fab dilution series on human TNF-α (Example 1; the filing does not say which of its two ELISA formats: hTNF-α-coated plate, or Fab captured on anti-human kappa with 5 nM biotinylated hTNF-α)
# T1 construct: It was biotinylated in some screening assays; also called hTNF-α; hTNF
# T1 sequence (P01375 77-233 limits assumed): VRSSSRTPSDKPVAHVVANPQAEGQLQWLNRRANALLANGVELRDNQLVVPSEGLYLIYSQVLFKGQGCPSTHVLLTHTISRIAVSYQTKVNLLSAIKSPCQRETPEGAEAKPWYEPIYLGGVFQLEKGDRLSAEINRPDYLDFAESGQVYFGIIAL
# human TNF-α [2] = biological target: T1, human TNF-α; test: KinExA 3000 kinetic exclusion assay, periplasmic Fab with hTNF-α in solution, 20 h at 20 C
# Protocol: (§1) Next, binding kinetics of three of the Fab fragments described in Table 4 were determined in a kinetic exclusion assay. Affinity measurements were performed on a KinExA™3000 instrument (Sapidyne Instruments, Inc., Boise, Id.) using Fab fragments (A10K, A9K, and A10P) released from the periplasmic space whose concentration was determined by a quantitative ELISA. Briefly, antigen and antibody fragment were allowed to react in solution and the fraction of unbound reagent was determined by capture and measured on a bead support. Binding kinetics can be determined or calculated from the amount of unbound reagent. For instance, after interaction between TNF-α and a Fab fragment has occurred in solution, binding of the unreacted, free Fab fragment to TNF-α coated beads can be measured on the instrument by detection with a labeled secondary antibody to the Fab fragment (e.g., a goat anti-IgG (heavy and light)). […] For A10K and A10P, the Fab concentration was 10 pM with the human TNF-α concentration beginning at 160 pM and then serially diluted to 0.078 pM with the final tube containing no human TNF-α. A9K incubation was set in a similar manner, with the Fab at a constant concentration of 20 pM and human TNF-α serially diluted beginning at 500 pM with a final concentration of 0.24 pM. After the incubation, the amount of unbound Fab in the equilibrated samples was determined on the KinExA™3000 instrument according to the manufacturer's instructions. Kd values were determined by the instrument software.
# human TNF-α [3] = biological target: T1, human TNF-α; test: calculated from Kd = koff/kon (KinExA)
# Protocol: as §1
# To measure kₒₙ, individual Fab fragments at a concentration of 40 pM were mixed with 400 pM of hTNF-α. A series of measurements were taken over a time course. The resulting data was used to calculate the kₒₙ with the instrument software. koff was calculated by using the formula Kd=koff/kₒₙ.
# human TNF-α [4] = biological target: T1, human TNF-α; test: KinExA 3000 kinetic exclusion assay, 40 pM Fab mixed with 400 pM hTNF-α, time course
# Protocol: (§2) Next, binding kinetics of three of the Fab fragments described in Table 4 were determined in a kinetic exclusion assay. Affinity measurements were performed on a KinExA™3000 instrument (Sapidyne Instruments, Inc., Boise, Id.) using Fab fragments (A10K, A9K, and A10P) released from the periplasmic space whose concentration was determined by a quantitative ELISA. Briefly, antigen and antibody fragment were allowed to react in solution and the fraction of unbound reagent was determined by capture and measured on a bead support. Binding kinetics can be determined or calculated from the amount of unbound reagent. For instance, after interaction between TNF-α and a Fab fragment has occurred in solution, binding of the unreacted, free Fab fragment to TNF-α coated beads can be measured on the instrument by detection with a labeled secondary antibody to the Fab fragment (e.g., a goat anti-IgG (heavy and light)). […] After the incubation, the amount of unbound Fab in the equilibrated samples was determined on the KinExA™3000 instrument according to the manufacturer's instructions. Kd values were determined by the instrument software.
# (§3) To measure kₒₙ, individual Fab fragments at a concentration of 40 pM were mixed with 400 pM of hTNF-α. […] The resulting data was used to calculate the kₒₙ with the instrument software. koff was calculated by using the formula Kd=koff/kₒₙ.
# human TNF-α [5] = biological target: T1, human TNF-α; test: KinExA 3000 kinetic exclusion assay, 40 pM Fab mixed with 400 pM hTNF-α, time course; lower end of the printed range for A10K
# Protocol: as §2, §3
# human TNF-α [6] = biological target: T1, human TNF-α; test: cell-based or functional assay
# human TNF-α [7] = biological target: T1, human TNF-α; test: KinExA 3000 kinetic exclusion assay
binder,measurement,setting,value
B1,EC50 (read off the curve),human TNF-α [1],~0.02 µg/mL
B2,EC50 (read off the curve),human TNF-α [1],~0.02 µg/mL
B3,EC50 (read off the curve),human TNF-α [1],~0.02 µg/mL
B4,EC50 (read off the curve),human TNF-α [1],~0.03 µg/mL
B5,EC50 (read off the curve),human TNF-α [1],~0.02 µg/mL
same,Kd,human TNF-α [2],2.4 pM
same,koff,human TNF-α [3],6.2e-06 s⁻¹
same,kon,human TNF-α [4],2.6e+06 M⁻¹ s⁻¹
B6,EC50 (read off the curve),human TNF-α [1],~0.02 µg/mL
B7,EC50 (read off the curve),human TNF-α [1],~0.02 µg/mL
same,Kd,human TNF-α [2],3.5 to 7.2 pM
same,kon,human TNF-α [5],3.9e+06 to 7.51e+06 M⁻¹ s⁻¹
same,"EC50, L929 cell protection assay (FIG. 8)",human TNF-α [6],~25 pM
same,"EC50, L929 cell protection assay (FIG. 9)",human TNF-α [6],~67 pM
same,koff,human TNF-α [3],1.96e-05 to 3.76e-05 s⁻¹
B8,EC50 (read off the curve),human TNF-α [1],~0.02 µg/mL
same,Kd,human TNF-α [2],2 pM
same,koff,human TNF-α [3],8.2e-06 s⁻¹
same,kon,human TNF-α [4],4.1e+06 M⁻¹ s⁻¹
B9,binding result,human TNF-α [1],binds
B10,"EC50, L929 cell protection assay (FIG. 10)",human TNF-α [6],~2.7 pM
B11,Kd,human TNF-α [7],0.01 pM
same,koff,human TNF-α [7],2.6e-08 s⁻¹
same,kon,human TNF-α [7],2.6e+06 M⁻¹ s⁻¹
